Target: UV-DDB (DDB1-DDB2 heterodimer);SMUG1 WT (UniProt Q16531+Q92466+Q53HV7)
Assay: single-molecule DNA tightrope
Details: both Qdot-labeled; 91.1% of co-localized particles stationary and persistent; tetrahydrofuran abasic site every 2 kb; EMSA: 8 nM DNA, 20 mM HEPES pH 7.5, 150 mM NaCl, 2 mM DTT (5 mM for SMUG1), 5% glycerol, 0.5 mg/ml BSA (0.5 mg/l [sic] for SMUG1), +/- 1.5 mM MgCl2, RT 20 min

UV-DDB (DDB1-DDB2 heterodimer);SMUG1 WT, sequence (Q16531 whole entry, chain 1 of 3): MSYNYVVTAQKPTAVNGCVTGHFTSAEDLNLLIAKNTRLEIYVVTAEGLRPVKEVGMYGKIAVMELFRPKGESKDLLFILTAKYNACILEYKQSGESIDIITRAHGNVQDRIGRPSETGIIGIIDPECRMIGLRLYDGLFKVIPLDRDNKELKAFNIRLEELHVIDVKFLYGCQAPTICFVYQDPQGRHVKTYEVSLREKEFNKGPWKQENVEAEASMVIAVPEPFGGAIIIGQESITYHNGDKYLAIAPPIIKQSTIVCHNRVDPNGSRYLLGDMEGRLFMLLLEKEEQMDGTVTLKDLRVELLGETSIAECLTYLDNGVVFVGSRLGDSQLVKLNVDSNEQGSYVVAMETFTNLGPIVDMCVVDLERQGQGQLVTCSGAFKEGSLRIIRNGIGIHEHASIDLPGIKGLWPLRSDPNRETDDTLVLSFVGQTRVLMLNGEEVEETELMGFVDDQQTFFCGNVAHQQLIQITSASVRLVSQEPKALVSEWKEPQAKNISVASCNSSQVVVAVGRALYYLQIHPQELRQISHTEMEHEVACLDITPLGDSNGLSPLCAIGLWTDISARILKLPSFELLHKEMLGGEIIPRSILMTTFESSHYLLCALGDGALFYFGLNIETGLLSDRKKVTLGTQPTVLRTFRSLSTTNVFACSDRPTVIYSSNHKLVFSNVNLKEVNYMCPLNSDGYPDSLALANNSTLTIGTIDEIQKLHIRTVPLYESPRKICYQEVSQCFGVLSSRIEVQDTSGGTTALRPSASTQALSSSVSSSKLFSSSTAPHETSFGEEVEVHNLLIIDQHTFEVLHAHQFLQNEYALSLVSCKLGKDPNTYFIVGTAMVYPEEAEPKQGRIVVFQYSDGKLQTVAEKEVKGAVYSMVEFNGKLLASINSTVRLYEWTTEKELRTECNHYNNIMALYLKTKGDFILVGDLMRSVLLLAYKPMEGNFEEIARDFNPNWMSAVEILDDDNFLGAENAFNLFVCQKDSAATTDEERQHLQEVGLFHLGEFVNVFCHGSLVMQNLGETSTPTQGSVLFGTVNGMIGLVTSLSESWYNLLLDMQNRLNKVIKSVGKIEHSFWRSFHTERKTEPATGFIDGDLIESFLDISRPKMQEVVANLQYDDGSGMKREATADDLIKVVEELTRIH
UV-DDB (DDB1-DDB2 heterodimer);SMUG1 WT, sequence (Q92466 whole entry, chain 2 of 3): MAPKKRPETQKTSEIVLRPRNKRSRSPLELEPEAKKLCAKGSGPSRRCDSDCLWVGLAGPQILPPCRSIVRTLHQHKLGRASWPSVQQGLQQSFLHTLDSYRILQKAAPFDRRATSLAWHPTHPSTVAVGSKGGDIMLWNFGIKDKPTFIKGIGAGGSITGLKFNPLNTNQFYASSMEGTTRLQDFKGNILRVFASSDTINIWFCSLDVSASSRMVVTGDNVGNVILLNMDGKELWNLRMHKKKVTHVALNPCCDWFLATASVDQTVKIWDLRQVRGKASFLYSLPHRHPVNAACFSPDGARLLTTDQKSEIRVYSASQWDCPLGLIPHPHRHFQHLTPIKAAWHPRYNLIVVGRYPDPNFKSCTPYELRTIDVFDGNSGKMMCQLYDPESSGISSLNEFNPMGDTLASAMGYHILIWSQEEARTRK
UV-DDB (DDB1-DDB2 heterodimer);SMUG1 WT, sequence (Q53HV7 whole entry, chain 3 of 3): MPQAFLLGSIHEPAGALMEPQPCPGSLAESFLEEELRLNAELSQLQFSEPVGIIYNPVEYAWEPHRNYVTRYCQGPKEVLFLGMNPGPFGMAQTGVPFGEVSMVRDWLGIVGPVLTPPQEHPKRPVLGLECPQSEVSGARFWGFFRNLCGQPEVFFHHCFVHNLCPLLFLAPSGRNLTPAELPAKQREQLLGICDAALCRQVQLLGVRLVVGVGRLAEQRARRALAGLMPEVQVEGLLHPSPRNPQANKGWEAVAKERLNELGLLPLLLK

In the case of “DNA tightrope with one THF site every 2 kb”, the binding (% of particles co-localized) is reported as 15.6.

From article PMC10250209, “UV-DDB stimulates the activity of SMUG1 during base excision repair of 5-hydroxymethyl-2'-deoxyuridine moieties”
